We go through eight molecules from patent US20240115722A1 (RUTGERS THE STATE UNIVERSITY OF NEW JERSEY, published 2024).

Sequences and labels used below:
B1: anti-human EphA5 monoclonal murine antibody 11C12 (antibody, V domains shown)
VH: EVTLKESGGGLVQPGGSRKLSCAASGFTFSTFGIHWVRQAPEKGLEWVAYISGASTTIYYADTVKGRFTISRDNPKNTLFLQMTSLRSEDTAMYYCARYGTSFPYGLDYWGQGTSVTVSS
VL: DIVMTQSPGSLAVSLGQRATISCKASQSVDYDGDSYMNWYQQKPGQPPKLLIYGASNLESGIPARFSGSGSGTDFTLNIHPVEEEDAASYYCQQSNEDPFTFGSGTKLEIK
notes: Full murine antibody; also called murine 11C12; mouse 11C12
B2: VH3/VK4 humanized 11C12 antibody (antibody, human IgG1, kappa)
heavy: not shown
light: DIVMTQSPDSLAVSLGERATINCKSSQSVDYDGDSYMNWYQQKPGKAPKLLIYGASNLESGIPDRFSGSGSGTDFTLTISRLEPEDAASYYCQQSNEDPFTFGQGTKLEIKRTVAAPSVFIFPPSDEQLKSGTASVVCLLNNFYPREAKVQWKVDNALQSGNSQESVTEQDSKDSTYSLSSTLTLSKADYEKHKVYACEVTHQGLSSPVTKSFNRGEC
notes: Human IgG1/kappa; lead variant, tested as HEK supernatant and as protein purified from CHO; also called H3K4
B3: VH5/VK2 humanized 11C12 antibody (antibody, human IgG1, kappa, V domains shown)
VH: EVQLVESGGGLVQPGGSLKLSCAASGFTFSTFGIHWVRQAPGKGLEWVAYISGASTTIYYADSVKGRFTISRDNSKNTLYLQMNSLRAEDTAVYYCARYGTSFPYGLDYWGQGTLVTVSS
VL: DIVMTQSPDSLAVSLGERATINCKASQSVDYDGDSYMNWYQQKPGKAPKLLIYGASNLESGIPDRFSGSGSGTDFTLTISRLEPEDAASYYCQQSNEDPFTFGQGTKLEIKR
notes: Human IgG1/kappa; lead variant, tested as HEK supernatant and as protein purified from CHO; also called H5K2
B4: VH4/VK3 humanized 11C12 antibody (antibody, human IgG1, kappa)
heavy: not shown
light: B2 light with S25A, S89V
notes: Human IgG1/kappa; lead variant, tested as HEK supernatant and as purified protein; also called H4K3; EPHA5 H4K3
B5: VH5/VK4 humanized 11C12 antibody (antibody, human IgG1, kappa, V domains shown)
VH: B3 VH
VL: B3 VL with A25S
notes: Human IgG1/kappa; lead variant, tested as HEK supernatant and as protein purified from CHO; also called H5K4
B6: VH5/VK3 humanized 11C12 antibody (antibody, human IgG1, kappa)
heavy: not shown
light: B2 light with S25A, S89V
notes: Human IgG1/kappa; lead variant, tested as HEK supernatant and as purified protein; also called H5K3; EPHA5 H5K3
B7: VH4/VK4 humanized 11C12 antibody (antibody, human IgG1, kappa, V domains shown)
VH: B3 VH with S63T
VL: B3 VL with A25S
notes: Human IgG1/kappa; lead variant, tested as HEK supernatant and as protein purified from CHO; also called H4K4
B8: chimeric VH0/VK0 antibody (murine 11C12 variable regions, human IgG1/kappa constant regions) (antibody, V domains shown)
VH: B1 VH
VL: DIVMTQSPGSLAVSLGQRATISCKASQSVDYDGDSYMNWYQQKPGQPPKLLIYGASNLESGIPARFSGSGSGTDFTLNIHPVEEEDAASYYCQQSNEDPFTFGSGTKLEIKR
notes: also called chimeric antibody

The term EC50 (read off the curve) denotes the concentration needed to bring the measured effect to its halfway point. A word on the EC50: it is the concentration at which the effect is half-maximal. Usually Kd stands for the free concentration of one partner at which half of the binding sites on the other are occupied at equilibrium, for simple one-to-one binding. The term koff denotes the first-order rate constant of dissociation. The term kon denotes the rate constant with which the complex forms.

Numbering of substitutions follows the chain as printed.

T1 sequence (P54756 25-1037 limits assumed): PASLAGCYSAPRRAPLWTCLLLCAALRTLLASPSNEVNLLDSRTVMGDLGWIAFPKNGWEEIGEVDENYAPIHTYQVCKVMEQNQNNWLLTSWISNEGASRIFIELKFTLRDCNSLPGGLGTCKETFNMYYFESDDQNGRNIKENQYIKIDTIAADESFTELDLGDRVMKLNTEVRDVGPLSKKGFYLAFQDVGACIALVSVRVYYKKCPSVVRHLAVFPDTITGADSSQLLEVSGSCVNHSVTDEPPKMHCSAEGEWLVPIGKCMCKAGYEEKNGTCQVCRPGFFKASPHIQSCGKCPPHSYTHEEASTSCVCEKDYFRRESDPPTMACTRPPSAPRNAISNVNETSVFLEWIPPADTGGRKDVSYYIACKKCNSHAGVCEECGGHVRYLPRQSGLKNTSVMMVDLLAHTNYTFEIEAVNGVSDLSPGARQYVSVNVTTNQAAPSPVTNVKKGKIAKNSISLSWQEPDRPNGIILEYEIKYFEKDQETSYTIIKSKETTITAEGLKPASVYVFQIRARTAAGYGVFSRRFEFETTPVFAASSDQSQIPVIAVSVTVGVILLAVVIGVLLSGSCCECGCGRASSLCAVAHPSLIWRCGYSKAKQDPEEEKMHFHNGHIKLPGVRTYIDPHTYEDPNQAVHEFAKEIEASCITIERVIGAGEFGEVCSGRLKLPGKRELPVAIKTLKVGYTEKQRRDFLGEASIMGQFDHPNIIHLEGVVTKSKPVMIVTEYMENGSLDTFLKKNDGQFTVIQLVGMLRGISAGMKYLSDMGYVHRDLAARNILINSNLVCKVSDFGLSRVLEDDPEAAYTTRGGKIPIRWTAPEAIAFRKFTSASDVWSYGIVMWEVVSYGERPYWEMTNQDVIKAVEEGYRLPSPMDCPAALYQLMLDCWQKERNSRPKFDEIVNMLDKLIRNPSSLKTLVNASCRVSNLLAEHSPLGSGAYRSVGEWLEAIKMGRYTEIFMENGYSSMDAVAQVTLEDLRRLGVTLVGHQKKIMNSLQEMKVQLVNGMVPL
T3 sequence (P12314 16-374 limits assumed): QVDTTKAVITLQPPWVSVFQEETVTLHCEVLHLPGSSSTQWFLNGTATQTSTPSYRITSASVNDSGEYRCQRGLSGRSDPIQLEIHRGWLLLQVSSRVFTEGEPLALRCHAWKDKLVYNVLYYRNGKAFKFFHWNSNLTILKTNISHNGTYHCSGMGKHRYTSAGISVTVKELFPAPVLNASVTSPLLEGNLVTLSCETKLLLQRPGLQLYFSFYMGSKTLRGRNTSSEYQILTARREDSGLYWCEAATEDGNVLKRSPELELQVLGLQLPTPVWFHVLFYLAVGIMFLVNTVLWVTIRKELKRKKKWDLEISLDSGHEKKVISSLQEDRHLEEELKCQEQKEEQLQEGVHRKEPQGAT

One assay addresses T1, human EPH receptor A5 (EphA5) expressed on cells (human, UniProt P54756 25-1037).
T1 construct: Cell line (H460 stably expressing EphA5; HEK-293T transfected with EPHA5 clone or wild-type construct; lung cancer lines with endogenous or variable expression); also called cell-surface EphA5; wild-type target protein
Kind of assay: flow cytometry on H460 (EphA5+) cells, goat anti-mouse Alexa Fluor 647 detection.
For the molecule B1, the “EC50 (read off the curve)” value was ~0.05 µg/mL.

A further assay addresses T1, human EPH receptor A5 (EphA5) expressed …. Kind of assay: flow cytometry on H460 (EphA5+) cells, starting assay concentration 10 µg/mL. Here is the method:
Samples were prepared at a starting concentration of 10 μg/ml in FACS buffer and underwent a four-fold seven point serial dilution for testing with H460 cells and a three-fold three point serial dilution for the H226 cells. Cell pellets were resuspended in 100 μl of the serially diluted samples and incubated at 4° C. for 30 minutes. After the incubation, cells were pelleted, washed twice with 100 μl of FACS buffer and resuspended in either Alexa Fluor 647 anti-mouse or anti-human (Thermo Fisher) diluted to 5 μg/ml in FACS buffer. After incubation at 4° C. for 30 minutes, cells were pelleted, washed twice with 100 μl of FACS buffer and resuspended in 200 μl per well 1×BD CellFix solution (BD Pharmingen, Berkshire, UK). Median fluorescence intensity (MFI) was measured using an Attune NxT Flow Cytometer (Thermo Fisher, Loughborough, UK) and 10,000 gated events were acquired per sample. For data analysis, live cell populations were gated based on the forward and side scatter dot plot allowing the Alexa Fluor 647 MFI values to be measured in the RL1 channel.
In general terms: A flow cytometer gives signals particle by particle.
B2: the EC50 was 0.018 µg/mL and the “Max. Binding (MFI)” value worked out at 36500 MFI.

Take B3: the EC50 turned out to be 0.017 µg/mL and the “Max. Binding (MFI)” value was determined as 36900 MFI.

On to B4, for which the midpoint of the response, the EC50, lay at 0.018 µg/mL and the “Max. Binding (MFI)” value was 36700 MFI.

On to B5, for which the EC50 is 0.018 µg/mL and the “Max. Binding (MFI)” value turned out to be 35900 MFI.

As for B6, the response was half-maximal at 0.019 µg/mL (EC50) and the “Max. Binding (MFI)” value was 36500 MFI.

Regarding B7, the concentration for a half-maximal effect (EC50) was 0.017 µg/mL and the “Max. Binding (MFI)” value amounted to 37500 MFI.

Turning to B1, the EC50 was 0.025 µg/mL and the “Max. Binding (MFI)” value is 27300 MFI.

As to B8, the EC50 worked out at 0.015 µg/mL and the “Max. Binding (MFI)” value is 35400 MFI.

In the next assay the target is T2, recombinant human EphA5 (rhEphA5) antigen (human, UniProt P54756 25-573).
T2 construct: also called human EphA5 (R and D systems, Cat. No. 3036-A5); recombinant EphA5
T2 sequence (P54756 25-573 limits assumed): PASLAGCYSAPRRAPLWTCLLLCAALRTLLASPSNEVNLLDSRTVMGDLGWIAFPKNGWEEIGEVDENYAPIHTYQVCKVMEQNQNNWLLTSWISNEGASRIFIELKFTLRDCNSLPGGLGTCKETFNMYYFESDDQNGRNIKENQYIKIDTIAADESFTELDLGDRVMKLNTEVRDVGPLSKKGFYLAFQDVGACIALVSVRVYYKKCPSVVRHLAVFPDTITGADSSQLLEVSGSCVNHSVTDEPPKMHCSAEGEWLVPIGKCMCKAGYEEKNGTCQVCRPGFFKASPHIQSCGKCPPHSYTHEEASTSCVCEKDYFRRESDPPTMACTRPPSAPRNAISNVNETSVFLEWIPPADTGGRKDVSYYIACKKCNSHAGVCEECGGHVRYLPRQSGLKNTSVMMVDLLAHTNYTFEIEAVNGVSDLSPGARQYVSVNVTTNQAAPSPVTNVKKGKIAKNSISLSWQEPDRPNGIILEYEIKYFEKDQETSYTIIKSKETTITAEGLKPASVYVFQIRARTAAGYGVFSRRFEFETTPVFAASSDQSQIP
Kind of assay: SPR multi-cycle kinetics (Biacore T200), purified IgG captured on anti-human IgG CM5 chip, recombinant EphA5 as analyte, 1:1 fit. The procedure: HBS-P+(GE Healthcare, Uppsala, Sweden), supplemented with 1% BSA w/v (Sigma, Dorset, UK) was used as running buffer as well as for ligand and analyte dilutions. Purified lead antibodies were diluted to 0.5 μg/mL in running buffer and at the start of each cycle, loaded onto Fc2, Fc3 and Fc4 of an anti-human IgG CM5 sensor chip (GE Healthcare, Little Chalfont, UK). […] The surface was then allowed to stabilize.
Multi-cycle kinetic data was obtained using recombinant EphA5 as the analytes injected at a flow rate of 30 μl/min to minimize any potential mass transfer effects. […] For each concentration, the association phases were monitored for 210 seconds and the dissociation phase was measured for 900 seconds. Regeneration of the sensor chip surface was conducted between cycles using two injections of 3 M MgCl2. Multiple repeats of a blank and of EphA5 were programmed into the kinetic run in order to check the stability of both the surface and analyte over the kinetic cycles.
The signal from the reference channel Fc1 (no IgG captured) was subtracted from that of Fc2, Fc3 and Fc4 to correct for bulk effect and differences in non-specific binding to a reference surface. The signal from each IgG blank run (IgG captured but no antigen) was subtracted to correct for differences in surface stability. The double referenced sensorgrams were fitted with the Langmuir (1:1) binding model where the closeness of fit of the data to the model is evaluated using the Chi square value which describes the deviation between the experimental and fitted (observed and expected) curves. The fitting algorithm seeks to minimize the Chi square value.
(Surface plasmon resonance follows binding to a sensor surface in real time, without labels.)
For the molecule B2, the Kd amounted to 1.08 nM, the “Relative KD” value amounted to 0.69 and the koff came out at 0.00142 s⁻¹.

Take B3: the Kd was found to be 0.934 nM, the “Relative KD” value worked out at 0.6 and the koff was 0.00125 s⁻¹.

As for B4, the Kd stood at 0.937 nM, the “Relative KD” value came out at 0.6 and the koff is 0.00139 s⁻¹.

Consider B5, for which the Kd is 1.04 nM, the “Relative KD” value came out at 0.67 and the koff came out at 0.00128 s⁻¹.

Turning to B7, the Kd amounted to 1.04 nM, the “Relative KD” value stood at 0.67 and the koff turned out to be 0.00132 s⁻¹.

For another assay, the target named is T2, recombinant human EphA5 (rhEphA5) …. Description: SPR (Biacore T200), IgG captured on anti-human IgG chip, rhEphA5 as analyte, 1:1 fit; table does not say single- or multi-cycle.
Turning to B6, the Kd came to 1.11 nM, the dissociation rate constant (koff) was 0.00135 s⁻¹ and the kon stood at 1.21e+06 M⁻¹ s⁻¹.

On to B8, for which the Kd amounted to 1.56 nM, the koff worked out at 0.0015 s⁻¹ and the kon worked out at 965000 M⁻¹ s⁻¹.

For the next assay the target is unchanged. Description: SPR single-cycle kinetics (Biacore T200), IgG from HEK supernatant captured on anti-human IgG CM5 chip, rhEphA5 as analyte, 1:1 fit. The arrangement: Relative KD: reference not given here. The procedure: Kinetic analysis was carried out on a Biacore T200. Each antibody was captured on a CM5 chip coupled with an anti-human IgG using standard amine chemistry before increasing concentrations of antigen were injected and a single off-rate was determined.
Kinetic experiments were performed at 25° C. on a Biacore T200 running Biacore T200 Control software V2.0.1 and Evaluation software V3.0 (Cytiva, Uppsala, Sweden).
HBS-P+ (Cytiva, Uppsala, Sweden), supplemented with 1% BSA (Sigma, Dorset, UK) was used as running buffer as well as for ligand and analyte dilutions. Supernatants containing IgG were diluted in running buffer to 1 μg/mL. At the start of each cycle, antibodies were loaded onto Fc2, Fc3 and Fc4 of an anti-human IgG CM5 sensor chip (Cytiva, Little Chalfont, UK). Ig were captured at a flow rate of […] to give an immobilization level (RL) of ˜60 RU. The surface was then allowed to stabilize.
As to B2, the Kd was 0.956 nM, the “Relative KD” value was found to be 0.72 and the koff turned out to be 0.00128 s⁻¹.

With B3, the Kd is 0.892 nM, the “Relative KD” value turned out to be 0.67 and the koff stood at 0.00123 s⁻¹.

For B4, the Kd worked out at 1.04 nM, the “Relative KD” value is 0.78 and the koff is 0.00137 s⁻¹.

Take B5: the Kd is 1.04 nM, the “Relative KD” value worked out at 0.78 and the koff was 0.00141 s⁻¹.

B6: the Kd was 1.03 nM, the “Relative KD” value was determined as 0.77 and the off-rate (koff) stood at 0.0014 s⁻¹.

As for B7, the Kd amounted to 1.05 nM, the “Relative KD” value came out at 0.79 and the koff turned out to be 0.0014 s⁻¹.

Regarding B8, the Kd came out at 1.33 nM, the “Relative KD” value was 1 and the koff is 0.00153 s⁻¹.

A further assay has as its target T3, FCGR1A (human, UniProt P12314).
T3 construct: clone overexpressed in live cells from an expression plasmid; Labelled point above the threshold in the Membrane Proteome Array plots of both H4K3 and H5K3
Kind of assay: Membrane Proteome Array screen, human membrane protein clones expressed in cells, flow cytometry (Table E4: HEK-293T, antibody 20 µg/ml).
Turning to B4, the binding result is reported as “binds”.

The target in a further assay is T3, FCGR1A. The description is as above. This is another data set of the same source.
B6: the binding result was “binds”.
